Experimental data taken from paper PMC8059821.

Target: hACE2-NN-Fc 5mut (human) (UniProt Q9BYF1)
Assay: SPR

soluble monomeric SARS2-RBD (from UniProt P0DTC2) (domain or fragment)
Kd: 5.45 nM
